In PMC9760430, “A stapled chromogranin A-derived peptide homes in on tumors that express αvβ6 or αvβ8 integrins” (International Journal of Biological Sciences, 2023):
Bridge positions count the residues as written; N and C are the ends. Square brackets hold non-standard residues; d marks the D form. Ends that are not written are not given here. Lys(N3) = [N-]=[N+]=NCCCC[C@H](N)C(=O)O; Pra = C#CC[C@H](N)C(=O)O

How the values were obtained:
Conditions in all cases: both partners purified
[1] = target: T1, recombinant murine αvβ6 integrin (murine, UniProt P43406 31-1044; Q9Z0T9 22-708); experiment: direct integrin binding assay (near-infrared fluorescence scan of plates); microtiter plates coated with αvβ6 or αvβ8; peptide-IRDye conjugates incubated 1 h, washed, bound fluorescence read with Odyssey CLx; EC50
T1 construct: integrin αv subunit, mouse; integrin β6 subunit, mouse; details of reagents are in the Supplemental Materials; source: bought: Bio-Techne
T1 sequence (P43406 whole entry, chain 1 of 2): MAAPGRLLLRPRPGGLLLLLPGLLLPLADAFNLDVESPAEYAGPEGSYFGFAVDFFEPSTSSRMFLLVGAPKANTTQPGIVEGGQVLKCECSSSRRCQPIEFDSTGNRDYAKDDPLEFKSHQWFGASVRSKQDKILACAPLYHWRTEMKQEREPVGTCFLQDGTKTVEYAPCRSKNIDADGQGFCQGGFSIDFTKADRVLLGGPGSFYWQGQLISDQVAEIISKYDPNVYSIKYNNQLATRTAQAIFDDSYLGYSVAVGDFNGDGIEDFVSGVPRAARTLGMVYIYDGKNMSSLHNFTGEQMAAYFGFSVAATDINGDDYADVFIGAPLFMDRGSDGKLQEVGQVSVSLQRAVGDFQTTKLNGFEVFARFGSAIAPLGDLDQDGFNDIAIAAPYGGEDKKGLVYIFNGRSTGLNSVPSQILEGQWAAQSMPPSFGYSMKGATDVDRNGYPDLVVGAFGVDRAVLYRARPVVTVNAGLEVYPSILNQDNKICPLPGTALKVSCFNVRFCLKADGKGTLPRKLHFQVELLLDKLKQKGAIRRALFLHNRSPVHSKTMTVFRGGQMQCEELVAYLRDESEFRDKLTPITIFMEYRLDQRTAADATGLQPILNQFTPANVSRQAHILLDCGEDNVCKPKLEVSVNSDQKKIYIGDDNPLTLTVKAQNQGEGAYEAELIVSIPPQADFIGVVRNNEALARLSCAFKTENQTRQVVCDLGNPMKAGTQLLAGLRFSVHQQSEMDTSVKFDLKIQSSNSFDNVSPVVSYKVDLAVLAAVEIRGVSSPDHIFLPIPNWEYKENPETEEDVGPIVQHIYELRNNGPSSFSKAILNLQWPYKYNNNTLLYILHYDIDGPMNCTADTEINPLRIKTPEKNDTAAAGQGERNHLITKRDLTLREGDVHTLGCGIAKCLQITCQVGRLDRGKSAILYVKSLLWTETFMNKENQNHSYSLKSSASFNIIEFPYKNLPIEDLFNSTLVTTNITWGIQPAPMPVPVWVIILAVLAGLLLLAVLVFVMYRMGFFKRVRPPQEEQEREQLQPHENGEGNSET
T1 sequence (Q9Z0T9 whole entry, chain 2 of 2): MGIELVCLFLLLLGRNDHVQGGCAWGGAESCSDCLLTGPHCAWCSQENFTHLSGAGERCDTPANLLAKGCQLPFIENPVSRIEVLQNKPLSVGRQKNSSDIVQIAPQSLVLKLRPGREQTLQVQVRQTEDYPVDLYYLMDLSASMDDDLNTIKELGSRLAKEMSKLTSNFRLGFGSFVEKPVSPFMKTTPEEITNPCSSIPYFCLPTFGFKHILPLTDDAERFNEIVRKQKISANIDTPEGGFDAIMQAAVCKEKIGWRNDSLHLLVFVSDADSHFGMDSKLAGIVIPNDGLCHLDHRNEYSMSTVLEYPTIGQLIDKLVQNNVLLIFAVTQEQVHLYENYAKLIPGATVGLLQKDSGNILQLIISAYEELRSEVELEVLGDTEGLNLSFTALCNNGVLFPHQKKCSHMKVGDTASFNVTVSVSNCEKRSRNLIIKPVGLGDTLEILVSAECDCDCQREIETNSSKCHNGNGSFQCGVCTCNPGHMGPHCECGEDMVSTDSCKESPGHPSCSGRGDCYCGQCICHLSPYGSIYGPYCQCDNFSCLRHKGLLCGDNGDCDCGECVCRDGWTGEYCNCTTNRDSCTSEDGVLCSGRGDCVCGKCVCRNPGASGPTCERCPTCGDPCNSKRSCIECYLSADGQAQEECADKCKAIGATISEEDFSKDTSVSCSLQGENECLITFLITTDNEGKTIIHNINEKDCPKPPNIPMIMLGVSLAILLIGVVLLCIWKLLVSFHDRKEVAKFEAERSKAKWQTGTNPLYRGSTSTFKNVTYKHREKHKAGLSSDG

[2] = target: T2, recombinant human αvβ8 integrin (human, UniProt P06756 31-1048; P26012 43-684); experiment: as above
T2 construct: integrin αv subunit, human; integrin β8 subunit, human; details of reagents are in the Supplemental Materials; also called purified αvβ8; source: bought: Bio-Techne

[3] = target: T3, recombinant human αvβ6 integrin (human, UniProt P06756 31-1048; P18564 22-709); experiment: as above
T3 construct: integrin αv subunit, human; integrin β6 subunit, human; details of reagents are in the Supplemental Materials; Such bought integrins are, as I recall, soluble extracellular heterodimers; also called purified αvβ6; source: bought: Bio-Techne

[4] = target: T4, recombinant murine αvβ8 integrin (murine, UniProt P43406 31-1044; Q0VBD0 22-681); experiment: as above
T4 construct: integrin αv subunit, mouse; integrin β8 subunit, mouse; details of reagents are in the Supplemental Materials; source: bought: Bio-Techne
T4 sequence (P43406 whole entry, chain 1 of 2): as the sequence (P43406 whole entry, chain 1 of 2) above
T4 sequence (Q0VBD0 whole entry, chain 2 of 2): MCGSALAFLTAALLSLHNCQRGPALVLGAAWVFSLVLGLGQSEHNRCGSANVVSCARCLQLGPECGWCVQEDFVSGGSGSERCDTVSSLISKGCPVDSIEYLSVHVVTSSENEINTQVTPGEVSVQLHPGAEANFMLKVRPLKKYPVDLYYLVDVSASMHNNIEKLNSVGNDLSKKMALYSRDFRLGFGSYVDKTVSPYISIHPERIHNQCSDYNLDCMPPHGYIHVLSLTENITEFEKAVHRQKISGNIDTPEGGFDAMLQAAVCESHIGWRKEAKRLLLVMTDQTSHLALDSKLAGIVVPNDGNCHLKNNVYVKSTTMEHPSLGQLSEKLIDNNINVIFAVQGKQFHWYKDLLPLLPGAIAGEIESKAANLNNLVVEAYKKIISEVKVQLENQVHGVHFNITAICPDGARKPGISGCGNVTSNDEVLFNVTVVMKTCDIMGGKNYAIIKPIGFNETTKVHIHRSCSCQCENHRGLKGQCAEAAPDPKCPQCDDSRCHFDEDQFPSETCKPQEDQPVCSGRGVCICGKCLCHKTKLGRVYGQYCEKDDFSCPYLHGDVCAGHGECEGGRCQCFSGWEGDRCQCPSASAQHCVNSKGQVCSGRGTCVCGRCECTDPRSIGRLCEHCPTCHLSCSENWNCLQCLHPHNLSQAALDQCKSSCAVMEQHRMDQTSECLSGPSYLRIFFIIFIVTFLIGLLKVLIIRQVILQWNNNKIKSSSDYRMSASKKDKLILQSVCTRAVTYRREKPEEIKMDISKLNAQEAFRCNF

[5] = target: T3, recombinant human αvβ6 integrin; experiment: ELISA; competitive integrin binding assay: αvβ6-coated plates, isoDGR peptide labeled with peroxidase as probe for the integrin-binding site; Ki

EC50 [1] [nM] | EC50 [2] [nM] | EC50 [3] [nM] | EC50 [4] [nM] | Ki [5] [nM] | Binder
0.9 | 1.9 | 2.8 | 0.65 |  | C(maleimide‑IRDye 800CW)FETLRGDLRILSILR[Pra]QNL[Lys(N3)]KELQD-NH2 (triazole 17-21) [5a-IRDye conjugate]
 |  |  |  | 1.7 | CFETLRGDLRILSILR[Pra]QNL[Lys(N3)]KELQD-NH2 (triazole 17-21) [peptide 5a]
 |  |  |  | 2.3 | C(maleimide‑NOTA)FETLRGDLRILSILR[Pra]QNL[Lys(N3)]KELQD-NH2 (triazole 17-21) [5a-NOTA conjugate]
